Reference: article PMC3867001

Molecular target: HIV-1 M group N-terminal capsid domain (HIV-1 M group) (UniProt P12493)
Assay: ITC

| Substance | Kd | dH |
| --- | --- | --- |
| Cyclophilin A (unacetylated, recombinant) (from UniProt P62937 1-165) (enzyme) | 7.5 µM | -7.4 kcal/mol |
| Lys125-acetylated Cyclophilin A (recombinant) (from UniProt P62937 1-165) (enzyme) | 6.1 µM | -4.6 kcal/mol |
